# Source: patent publication US7723070B2, “Overexpression of aminoacyl-tRNA synthetases for efficient production of engineered proteins containing amino acid analogues” (California Institute of Technology, priority 2000, dated 2010)
# System: B834(DE3) or CAG18491 hosts with pQE15/pREP4 or pQE15-MRS/pREP4
# Assay: Translational activity: mDHFR synthesis, statements covering several bacterial hosts (with pQE15 or pQE15-MRS)
# Format: cell-based, E. coli
# Conditions: each of CAG18491/pQE15/pREP4 and CAG18491/pQE15-MRS/pREP4
# Experimental: Methionine analogues were synthesized via alkylation of diethylacetamidomalonate, as previously described (As described in Example I, infra; J. C. M. van Hest, D. A. Tirrell, FEBS Lett. 1998, 428, 68-70). Cultures of B834(DE3)/pQE15-MRS/pREP4 or B834(DE3)/pQE15/pREP4 or CAG18491/pQE15-MRS/pREP4 or CAG18491/pQE15/pREP4 in M9AA media were grown to an optical density of 0.90, and the cells were sedimented by centrifugation. The M9AA medium was prepared by supplementing sterile M9 medium with […] of each of the amino acids, 1 mM MgSO4, 0.2 wt % glucose, 1 mg/ml thiamine chloride, and […] calcium chloride. The antibiotics ampicillin and kanamycin were added at concentrations of 200 mg/l and 35 mg/l, respectively.
# Cells were washed three times with M9 salts and resuspended to an optical density of 0.90 in M9 test media containing 19 amino acids plus 1) neither methionine nor analogue (negative control); 2) methionine (60 mg/liter, positive control); or 3) an analogue of interest (60 mg/liter). To test the effect of increasing the level of supplementation of the analogues, a set of experiments was also conducted in which the medium was supplemented with 500 mg/liter of methionine or the amino acid analogue. Expression of mDHFR was induced by addition of 0.4 mM isopropyl β-D-thiogalactopyranoside (IPTG), and protein synthesis was monitored after 4.5 hours.
molecule,measurement,value
"mDHFR: mouse dihydrofolate reductase with N-terminal hexahistidine sequence, test protein (protein, UniProt P00375 2-187, looked up, N-terminal His6 tag) Dihydrofolate reductase: VRPLNCIVAVSQNMGIGKNGDLPWPPLRNEFKYFQRMTTTSSVEGKQNLVIMGRKTWFSIPEKNRPLKDRINIVLSRELKEPPRGAHFLAKSLDDALRLIEQPELASKVDMVWIVGGSSVYQEAMNQPGHLRLFVTRIMQEFESDTFFPEIDLGKYKLLPEYPGVLSEVQEEKGIKYKFEVYEKKD",yield of mDHFR in M9AA medium,approximately 30 mg
